Data from publication PMC8219380, “The discriminatory power of the T cell receptor” (eLife, 2021).

System: CXCR4
Assay: Discrimination power from published data: CXCR4
Conditions: ID 21; output Voltage; n 5; ns; ref Guyon 2013
Source text: The broad method was to obtain a measure of ligand potency from each study. […] If not explicitly provided, we estimated ligand potency as PX , which was defined by the concentration of ligand that produced X response. To do this, we drew a horizontal line at X on a provided dose-response graph and estimated the ligand concentration where the data intercepted the horizontal line. The disadvantage with this method is that ligand potency was estimated based on the single representative graph provided in the study.
Each study often contained or cited a study that contained estimates of KD or koff for the specific TCR/pMHC interactions used in the study. We only included studies where monomeric SPR binding data was available to avoid multimeric binding parameters (e.g. when using tetramers). However, when analysing discrimination by other non-TCR receptors, we included binding data from various methods (e.g. SPR, radio labelled ligands) provided they were monomeric measurements. The use of SPR is important for weak interactions, such as TCR/pMHC, but various methods are available for higher-affinity interactions.
The plot of potency over KD or k off was fit using linear regression on log-transformed axes. We reported the slope of the fit (i.e. the discrimination power, α), the goodness-of-fit measure ( R^2 ), and the p-value for the null hypothesis that the slope is zero (i.e. α=0 ). […]

B1: CXCR4: receptor tested with Baclofen and other GABA ligands (protein, UniProt P61073 1-352, looked up)
C-X-C chemokine receptor type …: MEGISIYTSDNYTEEMGSGDYDSMKEPCFREENANFNKIFLPTIYSIIFLTGIVGNGLVILVMGYQKKLRSMTDKYRLHLSVADLLFVITLPFWAVDAVANWYFGNFLCKAVHVIYTVNLYSSVLILAFISLDRYLAIVHATNSQRPRKLLAEKVVYVGVWIPALLLTIPDFIFANVSEADDRYICDRFYPNDLWVVVFQFQHIMVGLILPGIVILSCYCIIISKLSHSKGHQKRKALKTTVILILAFFACWLPYYIGISIDSFILLEIIKQGCEFENTVHKWISITEALAFFHCCLNPILYAFLGAKFKTSAQHALTSVSRGSSLKILSKGKRGGHSSVSTESESSSFHSS
- Power (discrimination power): 0.5686
